Measured values taken from the supplement of paper PMC12338614.

B1: library; numbered along this chain (parent)
chain: MEVVDPQQLGMFTEGELMSVGMDTFIHRIDSTEVIYQPRRKRAKLIGKYLMGDLLGEGSYGKVKEVLDSETLCRRAVKILKKKKLRRIPNGEANVKKEIQLLRRLRHKNVIQLVDVLYNEEKQKMYMVMEYCVCGMQEMLDSVPEKRFPVCQAHGYFCQLIDGLEYLHSQGIVHKDIKPGNLLLTTGGTLKISDLGVAEALHPFAADDTCRTSQGSPAFQPPEIANGLDTFSGFKVDIWSAGVTLYNITTGLYPFEGDNIYKLFENIGKGSYAIPGDCGPPLSDLLKGMLEYEPAKRFSIRQIRQHSWFRKKHPPAEAPVPIPPSPDTKDRWRSMTVVPYLEDLHGADEDEDLFDIEDDIIYTQDFTVPGQVPEEEASHNGQRRGLPKAVCMNGTEAAQLSTKSRAEGRAPNPARKACSASSKIRRLSACKQQ

Variants of: B1
Assay: STK11 functional score (HeLa growth suppression), rescaled enrichment; synonymous median = 1, nonsense median = 0 (normalised score)
Settings: with HeLa; variant type: missense
Method in brief: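 The functional score takes the post/pre-selection log ratio, corrects it to wild type, rescales it to synonymous and nonsense medians, and merges it over codons and replicate transfections, with error from bootstrapping. Counts came from tiled gDNA amplicons sequenced on NextSeq (~2 million reads per tile). The libraries were POPCode codon-randomised, codon-optimised STK11 integrated by Bxb1 at an AAVS1 landing pad in HeLa, three regions with three transfections each.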

STK11 functional score, by site and new letter:
Q432: Y 1.63, G 1.61, L 1.55, W 1.59, R 1.6, D 1.46
A417: N 1.55, M 1.47, S 1.25, R 1.6, G 1.47, P 1.2, H 0.849, V 0.845, I 1.51, L 1.51, T 1.55
S421: V 1.38, Y 1.61, E 1.56, T 1.12, G 1.38, F 1.08, C 0.549, R 1.44, N 1.6, D 1.62, K 1.45, I 1.52, L 1.62
S428: D 1.21, L 0.874, K 0.386, C 1.4, W 1.62, T 1.56, V 1.56, G 1.6, A 1.14, N 0.872, F 1.61, E 1.63, I 1.62, Y 1.39
S422: A 1.5, L 1.17, Q 1.58, C 1.44, N 0.705, K 1.53, I 1.3, D 1.59, V 1.05, E 1.49, F 1.4, W 1.4, Y 1.54, T 0.705, R 1.47, G 1.49
R426: H 1.61, C 1.12, Y 1.54, S 1.5, F 1.3, V 1.62, G 1.1, D 1.42, T 1.17, L 1.4, N 1.58, K 1.49, A 0.525, I 1.15
Q433: R 0.937, H 1.2
K423: N 1.52, G 1.56, F 1.07, R 1.17, Q 0.701, S 1.56, L 1.45, W 1.49, D 1.14, C 1.58, V 1.28, I 1.25, T 1.57, A 0.687, Y 1.41, H 0.899, E 1.62
R425: A 1.59, W 1.03, M 1.51, G 1.55, P 1.51, F 1.11, E 1.23, T 1.52, I 0.977, V 0.938, Y 1.54, H 1.56, C 1.27, L 1.4, S 1.54, D 1.61, N 1.62
S419: A 1.37, E 1.24, K 1.39, F 1.46, D 1.1, Y 1.61, H 1.63, L 1.17, V 0.892, G 1.58, N 1.54, I 1.16
A420: R 1.51, V 1.52, G 1.52, L 1.61
L427: W 1.53, T 1.59, Y 0.805, F 1.31, C 0.695, K 1.53, I 1.36, N 1.63, S 1.55, R 1.56, V 1.21, H 1.4, E 1.53, A 1.6
C418: S 1.51, D 1.57, M 1.54, E 1.58, G 1.61, L 1.46, Y 1.6, I 1.41, H 1.17, V 1.62, A 1.62, T 1.58, R 1.54
C430: G 1.55, W 1.02, S 1.56, F 1.48, V 1.03
I424: F 1.04, M 1.42, C 1.35, K 1.22, T 1.49, D 1.54, Q 1.55, L 1.34, W 0.789, R 1.5, V 1.33, A 1.58, N 1.44, G 0.657, S 1.37, Y 1.12
K431: S 1.64, Y 1.48, L 1.6, M 1.25, F 1.59, C 1.59
A429: K 1.49, G 1.12, Y 1.49, Q 1.56, P 0.559, R 1.5, V 1.47, E 1.55, L 1.48, C 1.62, S 1.29, I 1.63, T 0.896, W 1.21, D 1.52
